Data published in the RNAGym collection of RNA variant scans (doi:10.1073/pnas.2313332121).

B1: TPR t1 (parent)
chain: GACCAAUCUGCCCUCAGAGCUCGAGAACAUCUUCGGAUGCAGAGGAGGCAGGCUUCGGUGGCGCGAUAGCGCCAACGUCCUCAACCUCCAAUGCAUCCCACCACAUGAUGAUGCCUGAAGAGCCUUGGUUUUUUG

Variants of: B1
Test: polymerase ribozyme fitness, log enrichment relative to wild type (log ratio); higher = more active; in vitro selection for triplet polymerase activity
Method in brief: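 Fitness compares each genotype's enrichment to that of the wild type on a logarithmic scale, averaging replicates with inverse-variance weights. The logarithm is base 2. Enrichment came from Illumina sequencing of input and output libraries after one triplicate round of in vitro selection, which included frozen incubation at −7 °C, of PCR-built, transcribed mutant libraries of each subunit of a heterodimeric triplet polymerase ribozyme. Only genotypes with ≥10 input reads and ≥1 read per output were kept.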

First: GACCAAUCUGCCCUCAGAGCUGGAGAACAUCUUCGGAUGCAGAGGAGGCAGGCUUCGGUGGCGCGAUAGCUCCAACGUCCUCAACCUCAAAUGCAUCCCACCACAUGAUGAUGCCUGAAGAGCCUUGGUUUUUUG
Second: GACCAAUCUGCCCUCAGAGCUCGAGAACAUCUUCGGAUGCAGAGGAGGAAGGAUUCGGUGGCGCGAUAGCGCCAACGUACUCAAUCUCCAAUGCAUCCCACCACAUGAUGCUGCCUGAAGAGCCUUGGUUUUUUG
The “polymerase ribozyme fitness (log ratio)” value of the first is lower: -5.9 for the first, -2.83 for the second.

First: GACCAAUCUGCCCUCAGAGCUCGAGAAUAUCUUCGGAUGCAGAGGAGGCAGGCUUCGGUCGCGCGAUAGCGCCAACGUCCUCAACCUCCAAUGCAUCCCACCACAUGAUGAUGCCUGGAGAGCCUUGGUUUUUUG
Second: GACCAAUCUGCCCCCAGAGCUCGAGAACAUCUUCGGUUGCAGAGGAGGCAGGCUUCGGUGGCGCGAUAGCGCCAACGUCCUCAACCUCCAAUGCAUCCCACCACAUGAUGAUGCCUGAAGAGCCUUGGUUUUUUG
The “polymerase ribozyme fitness (log ratio)” value of the first is lower: -2.75 for the first, -1.93 for the second.

Compared with GACCAAUCUGCCCUCAGAGCUCGAGAACAUCUUCGGAUGCAGAGGAGGCAGGCUUCGGUGGCGCGAUAGCGCCAACGUCCUCAACCUCCAAUGCAUCCCACCAUAUGAUGAUGCCUGAAGAGCCUUGGUGUUUUG, GACCAAUCUGCCAUCAGAGCUCGAGAACAUCUUCGGAUGCAGAGGAGGCAGGCUUAGGUGGCGCGAUAGCGCCAACGUCCUCAACCUCCAAUGCAUCCCACCACAUGAUGAUGCCUGAAGAGCCUUGGUUUUUUG is lower in “polymerase ribozyme fitness (log ratio)” value: -0.0774 for the first, -1.3 for the second.

Compared with GACCAAUCUGCCCUCAGAGCUCGAGAACAUCUUCGGAUGCAGAGGUGGCAGGCUUCGGUGGCGCGAUAGCGCCAACGUCCUCAACCUCCAAUGCAUCCCACCACAUGAUGAUGCAUGAAGAGCCUUGGUUUUUUG, GACCAAUCUGCCCUCAGAGCUCGAGAACAUCUUCGGAUGCAGAGGAGGCAGGCUUCGGUAGCGCGAUAGCGCCAACGUCCACAACCUCCAAUGCAUCCCACCACAUGAUGAUGCCUGAAGAGCCUUGGUUUUUUG is higher in “polymerase ribozyme fitness (log ratio)” value: -1.98 for the first, -1.44 for the second.

First: GACCAAUCUGCCCUCAGAGCUCGAGAACAUCUUCGCAUGCAGAGGAGGCAGGCUUCGGUGGCGCGAUAGCGCCAACGUCCUCAACCUCCAAUGCAUCCCACCACAUGAUGAUGCCUGAAGAGCCUUGGAUUUUUG
Second: GACCAAUCUGCCCUCAGAGCUCGAGAACAUCUUCGGAUGCAGAGGAGGCAGGCUUCGGUGGCGCGAUAGUGCCAACGUCCUCAACCUCCAAUGCAUCCCACCACAUGAUGAUGCCUGAAGAGCCUUGGCUUUUUG
The “polymerase ribozyme fitness (log ratio)” value of the first is lower: -2.27 for the first, -0.753 for the second.

Going from GACCAAUCUGCCCUCAGAGCUCGAGAACAUCUUCGGAUGCAGAGGAGGCAGUCUUCGGUGGCGCGAUAGCGCCAACGUCCUCAACCUCCAAUGCAUCCCACCACGUGAUGAUGCCUGAAGAGCCUUGGUUUUUUG to GACUAAUCUGCCCUCAGAGCUCGAGAACAUCUUCGGAUGCAGAGGAGGCAGGCUUCGGUGGCGCGAUAGCGCCAACGUCCUCAACCUCCAAUGCAUCCCACCACAUGAUGAUGCCUGAAGAGCCUUGGUUUUUUG, the “polymerase ribozyme fitness (log ratio)” value rises from -3.17 to -0.513.

Going from GUCCAAUCUGCCCUCAGAGCUCGAGAACAUCUUCGGAUGCAGAGGAGGCAGGCUUCGGUGGUGCGAUAGCGCCAACGUCCUCAACCUCCAAUGCAUCCCACCACAUGAUGAUGCCUGAAGAGCCUUGGUUUUUUG to GACCAAUCUCCCCCUAGAGCUCGAGAACAUCUUCGGAUGCAGAGGAGGCAGGCUUCGGUGGCGCGAUAGCGCCAACGUCCUCAACCUCCAAUGUAUUCCACCACAUGAUGAAGCCUGAAGAGCCUUGGUUUUUUG, the “polymerase ribozyme fitness (log ratio)” value rises from -2.96 to -1.07.

Going from GACCAAUCUGCCCUCAGAGCUCGAGAACAUCUUCGGAUGUAGAGGAGUCAGGCUUCGGUGGCGCGAUAGCGCCAACGUCCUAAACCUACAAUGCAUCCCACCACAUGAUGAUGCCUGAAGAGCCUUGGUUUUUUG to GACCAAUCUGCCCUCAGAGCUCGAGAACAUCUUCGGAUUCAGAGGAGGGAGGCUUCGGUGGCGCGAUAGCGCCAACGUCCUCAACCUCCAAUGCAUCCCACCACAUGAUGAUGCCUGUAGAGCCUUGGUUUUUUG, the “polymerase ribozyme fitness (log ratio)” value rises from -3.31 to -0.724.

Going from GACCAAUCUGCCCUCAGAGCUCGAGAACGUCUUCGGAUGCAGAGGAGGGAGGCUUCGGUGGCGCGAUAGCGCCAACGUCCUCAAGCUCCAAUGCAUCCCACCACAUGAUGAUGCCUGAAGAGCCUUGGUUUUUUG to GACCAAUCUGCCCUCAGAGCUCGAGAACAUCUUCGUAUGCAGAGGAGGCAGGCUUCGGUGGCGCGAUAGCGCCAACGUACUCAACCUCCAAUGCAUCCCACCACAUGAUGAUGCCUGAAGAGCCUUGGUUUUUUG, the “polymerase ribozyme fitness (log ratio)” value falls from -2.46 to -3.02.

First: GACCAAUCUGCCUUCAGAGCUCGAGAACAUCUUCGGAUGCGGAGGAGGAAGUCUUCGGUGGCGCGAUAGCGCCAACGUCCUCAACCUCCAAUGCAUCCCACCACAUGAUGAUGCCUGAAGAGCCUUGGUUUUUUG
Second: GACCAAUCUGCCUUCAGAGCUCGAGAACAUCUUCGGAUGCAGAGGAGGCAGGCUUCGGUGGCGCGAUAGCGCGAACGUCCUAAACCCCCAAUGCAUCCCAACACAUGAUCAUGCCUGAAGAGCCUUAGUUUUUUG
The “polymerase ribozyme fitness (log ratio)” value of the first is higher: -1.15 for the first, -6.6 for the second.

For GACCAAUCUGCCCUUAGAGCUCGAGAACAUCUUCGGAUGCAGAGGAGGCAGGCUUCGGUGGCGCGAUAGCGCCAACGUCCUCAACCUCCAAUGCAUCCUACCACAUGAUGAUGCCUGAACAUCCUUGGUUUUUUG, the “polymerase ribozyme fitness (log ratio)” value was -3.71.
